Substitutions are numbered along the chain they refer to. Names may count otherwise.
T1: human CX3CR1 (human, UniProt P49238 1-355)
T1 construct: Overexpressed on CHO K1, Ba/F3 or HEK293T cells; also called huCX3CR1; hCX3CR1
T1 sequence: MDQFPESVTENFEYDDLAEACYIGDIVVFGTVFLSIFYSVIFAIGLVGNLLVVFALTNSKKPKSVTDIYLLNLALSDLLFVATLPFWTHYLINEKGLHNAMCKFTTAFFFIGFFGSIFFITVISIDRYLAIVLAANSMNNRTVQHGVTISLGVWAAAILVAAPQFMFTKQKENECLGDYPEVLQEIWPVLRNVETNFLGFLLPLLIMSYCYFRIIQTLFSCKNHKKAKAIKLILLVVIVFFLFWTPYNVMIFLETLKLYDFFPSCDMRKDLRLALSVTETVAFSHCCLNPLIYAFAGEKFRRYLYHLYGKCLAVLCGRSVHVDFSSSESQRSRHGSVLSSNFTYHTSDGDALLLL

T2: human CX3CR1 T280M (human, UniProt P49238 1-355)
T2 construct: Transiently transfected in HEK293T cells (pcDNA3.1); also called huCX3CR1 variant T280M (Rs3732378)
T2 sequence: T1 sequence with T280M

T3: cynomolgus CX3CR1 (cynomolgus monkey (Macaca fascicularis), UniProt P49238 1-355 (human entry))
T3 construct: Overexpressed on CHO K1 cells; also called cyno CX3CR1; cyCX3CR1
T3 chain: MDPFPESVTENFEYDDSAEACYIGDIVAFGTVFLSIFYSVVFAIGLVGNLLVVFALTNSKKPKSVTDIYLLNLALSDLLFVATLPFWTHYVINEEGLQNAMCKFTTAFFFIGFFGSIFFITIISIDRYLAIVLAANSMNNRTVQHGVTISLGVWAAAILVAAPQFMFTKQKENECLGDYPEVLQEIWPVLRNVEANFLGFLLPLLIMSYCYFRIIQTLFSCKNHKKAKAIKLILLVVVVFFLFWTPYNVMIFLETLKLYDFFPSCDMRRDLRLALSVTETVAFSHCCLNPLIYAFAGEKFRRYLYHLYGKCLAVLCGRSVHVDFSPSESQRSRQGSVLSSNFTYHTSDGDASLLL

T4: human CX3CR1 V249I (human, UniProt P49238 1-355)
T4 construct: Transiently transfected in HEK293T cells (pcDNA3.1); also called huCX3CR1 variant V249I (Rs3732379); printed V2491 in the text
T4 sequence: T1 sequence with V249I

B1: A041600035 (VHH)
chain: DVQLVESGGGSVQPGGSLRLSCAASGSIFSSTAMAWYRQAPGKQRDLVAVISTVGITKYADSVKGRFTISRDNAKNTVYLQMNSLRPEDTALYYCTSDARRGWDTRYWGQGTLVTVSSGGGGSGGGSEVQLVESGGGSVQPGGSLRLSCAASGSIFSSTAMAWYRQAPGKQRDLVAVISTVGITKYADSVKGRFTISRDNAKNTVYLQMNSLRPEDTALYYCTSDARRGWDTRYWGQGTLVTVSSGGGGSGGGSEVQLVESGGGVVQPGGSLRLSCAASGFTFRSFGMSWVRQAPGKGPEWVSSISGSGSDTLYADSVKGRFTISRDNSKNTLYLQMNSLRPEDTALYYCTIGGSLSRSSQGTLVTVSSA
notes: Trivalent ISVD construct (two anti-CX3CR1 ISVDs, one anti-albumin ISVD), C-terminal alanine included in the entry; also called 54A12_SO (E1D)-9GS-54A12_SO-9GS-ALB23002-A
B2: A041600041 (VHH)
chain: B1 chain with Q171R, V177A, S179N, I183V, A226P
notes: Trivalent ISVD construct (two anti-CX3CR1 ISVDs, one anti-albumin ISVD), C-terminal alanine included in the entry; also called 54A12_SO (E1D)-9GS-66B02_SO-9GS-ALB23002-A
B3: A041600025 (VHH)
chain: DVQLVESGGGSVQPGGSLRLSCAASGSIFSSTAMAWYRQAPGKQRDLVAVISTVGITKYADSVKGRFTISRDNAKNTVYLQMNSLRPEDTALYYCTSDARRGWDTRYWGQGTLVTVSSGGGGSGGGSEVQLVESGGGVVQPGGSLRLSCAASGFTFRSFGMSWVRQAPGKGPEWVSSISGSGSDTLYADSVKGRFTISRDNSKNTLYLQMNSLRPEDTALYYCTIGGSLSRSSQGTLVTVSSGGGGSGGGSEVQLVESGGGSVQPGGSLRLSCAASGSIFSSTAMAWYRQAPGKQRDLVAVISTVGITKYADSVKGRFTISRDNAKNTVYLQMNSLRPEDTALYYCTSDARRGWDTRYWGQGTLVTVSSA
notes: Trivalent ISVD construct (two anti-CX3CR1 ISVDs, one anti-albumin ISVD), C-terminal alanine included in the entry; also called 54A12_SO (E1D)-9GS-ALB23002-9GS-54A12_SO-A
B4: A041600034 (VHH)
chain: B3 chain with Q295R, V301A, S303N, I307V, A350P
notes: Trivalent ISVD construct; also called 54A12_SO (E1D)-9GS-ALB23002-9GS-66B02_SO-A
B5: A041600085 (VHH)
chain: DVQLVESGGGLVQPGGSLRLSCAASGSIFSSTAMAWYRQAPGKRRDLVAAISTVGVTKYADSVKGRFTISRDNSKNTVYLQMNSLRPEDTAVYYCTSDPRRGWDTRYWGQGTLVTVSSGGGGSGGGSEVQLVESGGGVVQPGGSLRLSCAASGFTFRSFGMSWVRQAPGKGPEWVSSISGSGSDTLYADSVKGRFTISRDNSKNTLYLQMNSLRPEDTALYYCTIGGSLSRSSQGTLVTVSSGGGGSGGGSEVQLVESGGGLVQPGGSLRLSCAASGSIFSSTAMAWYRQAPGKRRDLVAAISTVGVTKYADSVKGRFTISRDNSKNTVYLQMNSLRPEDTAVYYCTSDPRRGWDTRYWGQGTLVTVSSA
notes: also called 307-9GS-ALB23002-9GS-307 (D1E)-A

Molecular target: T1, human CX3CR1
Test: flow cytometry on transiently transfected HEK293T cells, human CX3CR1 WT
Procedure: (§1) After washing, serial dilutions of multivalent ISVD construct (starting from 250 nM, 3-fold dilution, 11 points, diluted in assay buffer), were added and incubated for 4 hours at 4° C. Binding was performed in the presence of 30 uM HSA (Sigma-Aldrich, Cat. No. A8763). Plates were then washed 3 times and cells were incubated with an anti-VHH mouse antibody (3300-fold diluted in assay buffer) for 30 minutes at 4′° C. […] Plates were finally washed 3 times and cells were resuspended in PI (Miltenyi Biotec, Cat. No. 130-093-233, 1000-fold diluted in assay buffer). Cell suspensions were analyzed with iQue Screener PLUS (Intellicyt). EC50s were estimated by dose response modelling. Curves were fit using 4 parameter logistic regression in GraphPad (GraphPad Software Inc.). A purified anti-human CX3CR1 antibody [K0124E1] (BioLegend, Cat. No. 355701/355702) was used as positive control to detect CX3CR1 expression on the cell surface.
(§2) Two important SNPs are described in huCX3CR1, i.e. V2491 (Rs3732379) and T280M (Rs3732378), which might influence receptor activity and binding by the ISVD. […] Different combinations of these SNPs were introduced in human CX3CR1, and binding by 5 selected multivalent ISVD constructs was assessed with flow cytometry after transient transfection of the huCX3CR1 variants in HEK293T cells.
(§3) In short, the CX3CR1 constructs were cloned into pcDNA3.1 (ThermoFisher Scientific, Cat. No. V79020) and plasmid DNA was prepared from Escherichia coli TOP10 cells. HEK293T cells were seeded at a concentration of 1.5E06 cells per T75 flask and incubated overnight at 37° C. in DMEM medium (Gibco, Cat. No. 31966) supplemented with 10% FBS (Sigma. Cat. No. F7524). The medium was then replaced by Opti-MEM medium (Gibco, Cat. No. 31985). A mixture of 9 μg plasmid DNA, 27 μL Fugene 6 (Promega, Cat. No. E2691) in a final volume of 1 mL Opti-MEM was incubated for 15 minutes at room temperature and then added to the cells. After 3 hours incubation at 37° C., 10 mL of DMEM supplemented with 20% FBS was added, and incubation continued.

EC50 [nM] | Binder
0.13 | B1
0.16 | B2
0.065 | B3
0.1 | B4
0.12 | B5

Molecular target: T2, human CX3CR1 T280M
Test: flow cytometry on transiently transfected HEK293T cells, human CX3CR1 T280M
Procedure: as §1, §2, §3

EC50 [nM] | Binder
0.2 | B1
0.22 | B2
0.16 | B3
0.074 | B4
0.17 | B5

Molecular target: T3, cynomolgus CX3CR1
Test: competition flow cytometry vs soluble huCX3CL1-AF647 on CHO K1 cyCX3CR1 cells, 30 uM HSA

% inhibition [%] | IC50 [nM] | Binder
105 | 1.1 | B1
107 | 1.8 | B2
104 | 1.7 | B3
104 | 1.8 | B4
102 | 1.1 | B5

Molecular target: T4, human CX3CR1 V249I
Test: flow cytometry on transiently transfected HEK293T cells, human CX3CR1 V249I
Procedure: as §1, §2, §3

EC50 [nM] | Binder
0.25 | B1
0.089 | B2
0.045 | B4
0.057 | B5
